Source: patent publication US20130177981A1

Key:
Mcl-1, Q07820 [1] = target: T1, Mcl-1, Q07820; experiment: direct-binding FP with the BODIPY-labeled analogue
T1 chain: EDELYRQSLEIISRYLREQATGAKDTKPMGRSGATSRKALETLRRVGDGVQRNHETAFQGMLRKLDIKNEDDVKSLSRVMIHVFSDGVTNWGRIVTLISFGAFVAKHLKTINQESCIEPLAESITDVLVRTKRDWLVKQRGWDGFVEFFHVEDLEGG

Bcl-xL, Q07817 = experiment: direct-binding FP with the BODIPY-labeled analogue
Mcl-1, Q07820 [2] = target: T1, Mcl-1, Q07820; experiment: competition FP; displacement of the labeled Bak BH3 peptide

Bcl-xL, Q07817, sequence (Q07817 1-209): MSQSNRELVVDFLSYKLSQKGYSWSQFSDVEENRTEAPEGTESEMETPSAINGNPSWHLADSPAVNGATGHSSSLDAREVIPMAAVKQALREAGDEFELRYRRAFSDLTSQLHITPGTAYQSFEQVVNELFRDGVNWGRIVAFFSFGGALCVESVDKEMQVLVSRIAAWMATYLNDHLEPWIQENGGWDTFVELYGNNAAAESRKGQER

For EEQWAREIGAQLRRMADDLNAQYERR (peptide, UniProt Q9BXH1 130-155, looked up, modifications not checked) [BODIPY-TMR-labeled analog of Puma BH3 α/β-peptide 4′, Q9BXH1 130-155], the Kd (Mcl-1, Q07820 [1]) was 110 nM and the Kd (Bcl-xL, Q07817) was 2.2 nM.

Work on EEQWAREIGAQLRRMADDLNAQYERR (peptide, UniProt Q9BXH1 130-155, looked up, modifications not checked) [Puma BH3 α-peptide 1′, Q9BXH1 130-155] yielded a Ki (Mcl-1, Q07820 [2]) of less than 10 nM.

In the case of EEQWAREIGAQLRRMADDLNAQYERR (peptide, UniProt Q9BXH1 130-155, looked up, modifications not checked) [BODIPY-TMR-labeled analog of Puma BH3 α-peptide 1′, Q9BXH1 130-155], the Kd (Mcl-1, Q07820 [1]) is reported as less than 2 nM.
